Changes are numbered by the printed parent chain. Read-outs that look alike come from different tables or passages of the source.
Columns and labels:
[1] = target: T1, extracellular domain of human CD47 (CD47-ECD), residues 1-118, with His6 tag and Avi tag (human, UniProt Q08722 19-136, biotin modification at the C-terminus (Avi tag, BirA) in the form called CD47-Bio); assay: self-competition of unlabelled SIRPα against labelled SIRPα for CD47 (% inhibition); the sheet prints only SIRPα, taken as the unlabelled SIRPα-d1-mFc of the competition ELISA of Example 1
T1 construct: also called CD47-ECD-His6; CD47-Bio; not shown: His6 tag and Avi tag from the vector

[2] = target: extracellular domain of human CD47 (CD47-ECD), residues 1-118, with His6 tag and Avi tag (human) (UniProt Q08722); assay: SPR (Biacore), scFv-hFc captured on anti-human IgG Fc CM5 chip, CD47 as analyte, 1:1 Langmuir model
[3] = target: extracellular domain of human CD47 (CD47-ECD), residues 1-118, with His6 tag and Avi tag (human) (UniProt Q08722); assay: SPR (Biacore), scFv-hFc captured on anti-human IgG Fc CM5 chip, CD47 as analyte, 1:1 model; column head x 10^-3 applied
[4] = target: extracellular domain of human CD47 (CD47-ECD), residues 1-118, with His6 tag and Avi tag (human) (UniProt Q08722); assay: SPR (Biacore), scFv-hFc captured on anti-human IgG Fc CM5 chip, CD47 as analyte, 1:1 model; column head x 10^6 applied
[5] = target: extracellular domain of human CD47 (CD47-ECD), residues 1-118, with His6 tag and Avi tag (human) (UniProt Q08722); assay: competition of the CD47/SIRPα interaction (% inhibition); the format is not stated for this panel, taken as the SIRPα competition ELISA of Example 1 with labelled SIRPα as competitor
[6] = target: T1, extracellular domain of human CD47 …; assay: SPR (Biacore T200), IgG1 captured on CM5 chip, CD47 as analyte; the column head prints KD (nM), but the cell equals kd/ka in M [Con't]
Procedure: (§1) 1 μg/mL of anti-CD47 full length IgG1 antibodies were captured onto a CM5 chip for 30 s at 10 μl/min. CD47 in 2-fold serial dilutions (starting at 100 nmol, seven concentrations total) were injected over the antibody-bound surface for 120 s at 30 μl/min followed by a 240 s dissociation phase. After each cycle, the surface was regenerated with magnesium chloride.

hGPC3-ΔHS = target: T2, hGPC3-ΔHS (human, UniProt P51654 25-559, limits assumed); assay: SPR, antibody captured by anti-human Fc antibodies on CM5 chip, hGPC3 injected first, then hCD47
T2 construct: also called hGPC3-ΔHS protein

[7] = target: T1, extracellular domain of human CD47 …; assay: CD47 binding ELISA, bio-CD47 captured on neutravidin, full-length IgG1
Procedure: (§2) CD47 binding ELISA: 2 μg/mL of neutravidin (Sigma) in phosphate buffered saline (PBS) was coated in U-bottom 96-well plate (Nunc, MaxiSorp™), 100 μL per well, at 4° C. overnight or 37° C. for 1 hour. 2 μg/mL of bio-CD47 in PBS containing 2% nonfat milk were then captured onto the plates at 100 μL per well by incubation at 30° C. for 1 hour. […] In between each incubation step, the ELISA plate was washed for 6 times with PBST solution (0.05% Tween20 containing PBS) at 200 μL per well. Followed by HRP-conjugated antibody incubation, the ELISA signal was developed by incubating with TMB substrate (Sigma) for 5-10 mins at 30° C. and then stop the reaction with 2M H₂SO₄ at 50 μL per well. The absorbance at 450 nm was read by a microplate reader (Bio-Rad). For scFv-Fc or IgG1 based ELISA, the method was basically the same as described above for phage-scFvs except the bound antibodies were detected by HRP-conjugated mouse anti-human IgG Fc antibody (Sigma).
(§3) In FIG. 3, A. Antibodies in the form of full-length IgG1 were 3-fold serial diluted (starting at 10 nM, 12 concentrations total). B. Antibodies in the form of full-length IgG1 were 3-fold serial diluted (starting at 40 nM, 12 concentrations total).

[8] = target: T1, extracellular domain of human CD47 …; assay: SIRPα competition ELISA, CD47-ECD-His6 coated, competitor 0.5 nM biotinylated SIRPα-d1-mFc
Procedure: (§4) The wash, development and read steps are the same as hCD47 binding ELISA. The OD450 values were transformed to Inhibition % in data analysis.
(§5) B. Antibodies in the form of full-length IgG1 were 3-fold serial diluted (starting at 40 nM, 12 concentrations total).

[9] = target: T1, extracellular domain of human CD47 …; assay: CD47 binding ELISA, bio-CD47 captured on neutravidin, full-length IgG1; remark: listed apart in the source
Procedure: as §2, §3

[10] = target: T1, extracellular domain of human CD47 …; assay: SPR (Biacore T200), IgG1 captured on CM5 chip, CD47 as analyte [Con't]
Procedure: SPR was performed on a Biacore T200. 1 μg/mL of anti-CD47 full length IgG1 antibodies were captured onto a CM5 chip for 30 s at 10 μl/min. CD47 in 2-fold serial dilutions (starting at 100 nmol, seven concentrations total) were injected over the antibody-bound surface for 120 s at 30 μl/min followed by a 240 s dissociation phase. After each cycle, the surface was regenerated with magnesium chloride.

[11] = target: T1, extracellular domain of human CD47 …; assay: SPR (Biacore T200), IgG1 captured on CM5 chip, CD47 as analyte; the column head also prints x 10^6, not applied because kd/ka of the cells gives the KD cell in M [Con't]
Procedure: as §1

[12] = target: hCD47 protein (SPR analyte of Example 2) (human, UniProt Q08722 19-139, limits assumed); assay: SPR (Biacore T200), IgG1 captured on protein A/G CM5 chip, human CD47 as analyte
Procedure: All SPR analyses were performed on a Biacore T200 instrument (Biacore, GE Healthcare). […] The association rates (Kₒₙ), dissociation rates (Koff), and affinity constants (KD) were calculated using BiacoreT200 evaluation software.

[13] = target: T1, extracellular domain of human CD47 …; assay: SIRPα competition ELISA, CD47-ECD-His6 coated, competitor 0.8 nM biotinylated SIRPα-d1-mFc
Procedure: as §4, §5

[14] = target: T1, extracellular domain of human CD47 …; assay: SPR (Biacore T200), IgG1 captured on CM5 chip, CD47 as analyte; the column head also prints x 10^-3, not applied because kd/ka of the cells gives the KD cell in M [Con't]
Procedure: as §1

[15] = target: extracellular domain of human CD47 (CD47-ECD), residues 1-118, with His6 tag and Avi tag (human) (UniProt Q08722); assay: phage-scFv ELISA on captured CD47-Bio

B1: SIRPα-d1-mFc fusion protein (Fc fusion, human, UniProt P78324 31-148, looked up)
chain: EEELQVIQPDKSVLVAAGETATLRCTATSLIPVGPIQWFRGAGPGRELIYNQKEGHFPRVTTVSDLTKRNNMDFSIRIGNITPADAGTYYCVKFRKGSPDDVEFKSGAGTELSVRAKP
modifications: biotinylated with Sulfo-NHS-SS-Biotin where used as the labelled ligand
notes: range 1-148; also called bio-SIRPα-d1-mFc; biotinylated SIRPα-d1-mFc; not shown: mouse IgG2a Fc fragment
- IC50 (read off the curve) [1]: ~4 nM

B2: BC18 scFv-hFc (Fc fusion, part only; not given: scFv linker, domain order, IgG1 Fc, not shown: another chain or arm of the molecule; a dimerising Fc or GST; small tags and cut ends)
VH: QVQLQQSGPGLVKPSETLSLTCTVSGDSINYHYWSWIRQPPGKGLEWIGYIYYSGSTTYNPSLKSRVTMSVDPSKNHFSLKLTSVTAADTALYFCARQRGAYDYWGQGTQVTVSS
VL: DIQLTQSPSSVSASVGDRVTIACRASQDIGSRLVWYQQRPGKAPKLLIYAASSLQSGVPSRFSGSGSGTDFTLTISSLQPEDFATYYCQQSYSTPYSFGQGTKLEIK
- Kd [2]: 1.43 nM
- koff [3]: 0.00328 s⁻¹
- kon [4]: 2.41e+06 M⁻¹ s⁻¹
- IC50 (read off the curve) [5]: 10 nM

B3: BC18 full-length human IgG1 (antibody, V domains shown)
VH: B2 VH
VL: B2 VL
notes: also called anti-CD47 mAb; parental anti-CD47 mAb
- Kd [6]: 2.22 nM
- binding result (hGPC3-ΔHS): no binding
- EC50 (read off the curve) [7]: ~0.01 nM
- IC50 (read off the curve) [8]: ~3 nM
- EC50 (read off the curve) [9]: ~0.01 nM
- Kd [10]: 1.62 nM
- koff [10]: 0.00117 s⁻¹
- kon [10]: 721000 M⁻¹ s⁻¹
- kon [11]: 557000 M⁻¹ s⁻¹
- Kd [12]: 1.11 nM
- koff [12]: 0.000753 s⁻¹
- kon [12]: 679000 M⁻¹ s⁻¹
- IC50 (read off the curve) [13]: ~3 nM
- koff [14]: 0.00123 s⁻¹

B4: BC7 phage-scFv (scFv, part only; not given: scFv linker, domain order, phage fusion, V domains shown, not shown: another chain or arm of the molecule; large carriers; small tags and cut ends)
VH: B2 VH with Q110L
VL: DIVMTQSPSSVSASVGDRVTITCRASQGIGSRLAWYQQKPGKAPQLLIYAASSLQSGVPSRFSGSGSGTEFTLTISSLQPDDFATYYCQQYNSFSPITFGQGTRLEIK
- optical density at 450 nm [15]: > 0.2 OD450

B5: BC7 scFv-hFc (Fc fusion, part only; not given: scFv linker, domain order, IgG1 Fc, not shown: another chain or arm of the molecule; a dimerising Fc or GST; small tags and cut ends)
VH: B2 VH with Q110L
VL: B4 VL
- Kd [2]: 3.27 nM
- koff [3]: 0.006 s⁻¹
- kon [4]: 1.84e+06 M⁻¹ s⁻¹

B6: BC18 phage-scFv (scFv, part only; not given: scFv linker, domain order, phage fusion, V domains shown, not shown: another chain or arm of the molecule; large carriers; small tags and cut ends)
VH: B2 VH
VL: B2 VL
- optical density at 450 nm [15]: > 0.2 OD450

B7: BC7 full-length human IgG1 (antibody, V domains shown)
VH: B2 VH with Q110L
VL: B4 VL
- EC50 (read off the curve) [9]: ~0.01 nM
- Kd [10]: 4.81 nM
- koff [10]: 0.00394 s⁻¹
- kon [10]: 816000 M⁻¹ s⁻¹
- IC50 (read off the curve) [13]: ~4 nM

B8: BC7m04 (antibody, IgG1, V domains shown)
VH: B2 VH with Q110L
VL: B4 VL with G28D, Q45K, E70D, D81E
- Kd [10]: 1.55 nM
- koff [10]: 0.00118 s⁻¹
- kon [10]: 763000 M⁻¹ s⁻¹

B9: BC7m03 (antibody, IgG1, V domains shown)
VH: B2 VH with Q110L
VL: B4 VL with G28D
- Kd [10]: 1.46 nM
- koff [10]: 0.00118 s⁻¹
- kon [10]: 806000 M⁻¹ s⁻¹

B10: BC18m03 (antibody, IgG1, V domains shown)
VH: B2 VH with Q6E, Q110L
VL: B2 VL
- Kd [10]: 1.6 nM
- koff [10]: 0.00122 s⁻¹
- kon [10]: 762000 M⁻¹ s⁻¹

B11: AB6.12 (antibody, V domains shown)
VH: QMQLVQSGAEVKKTGSSVKVSCKASGFNIKDYYLHWVRQAPGQALEWMGWIDPDQGDTEYAQKFQDRVTITRDRSMSTAYMELSSLRSEDTAMYYCNAAYGSSSYPMDYWGQGTTVTVSS
VL: NIQMTQSPSAMSASVGDRVTITCKASQDIHRYLSWFQQKPGKVPKHLIYRANRLVSGVPSRFSGSGSGTEFTLTISSLQPEDFATYYCLQYDEFPYTFGGGTKVEIKR
- Kd [6]: 1.76 nM
- EC50 (read off the curve) [7]: ~0.2 nM
- IC50 (read off the curve) [8]: ~6 nM
- kon [11]: 1.06e+06 M⁻¹ s⁻¹
- koff [14]: 0.00186 s⁻¹

B12: B6H12 (antibody)
chain: EVQLVESGGDLVKPGGSLKLSCAASGFTFSGYGMSWVRQTPDKRLEWVATITSGGTYTYYPDSVKGRFTISRDNAKNTLYLQIDSLKSEDTAIYFCARSLAGNAMDYWGQGTSVTVSSGGGGSGGGGSGGGGSDIVMTQSPATLSVTPGDRVSLSCRASQTISDYLHWYQQKSHESPRLLIKFASQSISGIPSRFSGSGSGSDFTLSINSVEPEDVGVYYCQNGHGFPRTFGGGTKLEIK
- EC50 (read off the curve) [9]: ~0.02 nM

— patent publication US20240076412A1 (NATIONAL INSTITUTE OF BIOLOGICAL SCIENCES BEIJING, published 2024)
